Test results published in US20120308570A1, “METHODS FOR TREATING DISEASES” (priority 2009, published 2012).
Numbering of substitutions follows the chain as printed.

Legend:
[1] = molecular target: T1, Y120A-SSB-2ΔSB (murine SSB-2 residues 12-224 with tyrosine 120 mutated to alanine) (mouse, UniProt O88838 12-224); experiment: ITC
T1 construct: also called SSB-2-Y120A
T1 chain: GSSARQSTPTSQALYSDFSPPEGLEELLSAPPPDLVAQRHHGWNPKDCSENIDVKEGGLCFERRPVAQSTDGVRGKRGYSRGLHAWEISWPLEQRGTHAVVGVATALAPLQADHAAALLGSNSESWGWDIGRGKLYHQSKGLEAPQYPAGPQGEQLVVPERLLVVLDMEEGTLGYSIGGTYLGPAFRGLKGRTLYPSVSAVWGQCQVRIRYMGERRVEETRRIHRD
Method: (§1) Wild-type and mutant iNOS peptides (Table 2), corresponding to Lys19-Thr31 of mouse iNOS, were synthesized by GL Biochem (Shanghai) Ltd. These peptides were N-terminal acetylated and C-terminal amidated. All ITC measurements were carried out at 25° C. using a Microcal omega VP-ITC (Microcal Inc., Northampton, Mass.). SSB-2ΔSB was dialysed against buffer (100 mM TrisHCl, 150 mM NaCl, pH 8.0), and wild-type and mutant iNOS N-terminal peptides were prepared in the same buffer from 5 mM stocks. Solutions of 5 to 10 μM SSB-2ΔSB in the cell were titrated by injection of a total of 290 μL of 50-200 μM of iNOS peptides. Data analysis was performed using the evaluation software, MicroCal Origin version 5.0. All curves were fitted using the nonlinear least-squares fitter and the “One Set of Sites” model.
(§2) Mutation of Glu21 had no effect on SSB-2:iNOS peptide binding. […] Binding of an SSB-2-SPRY domain in which tyrosine 120 had. been mutated to alanine (Y120A-SSB-2ΔSB) was assessed by ITC.

[2] = molecular target: T2, SSB-2ΔSB (recombinant murine SSB-2 SPRY domain, residues 12-224) (mouse, UniProt O88838 12-224); experiment: ITC, 25 C, peptide injected into SSB-2ΔSB
T2 construct: 226 residues in total; expressed as GST fusion in E. coli, GST cleaved off with thrombin; 15N-labelled for NMR; coupled to NHS-Sepharose for pull-downs; also called SPSB2
T2 sequence: T1 chain with A115Y
Method: (§3) FIG. 3. Typical ITC raw data and titration curves for SSB-2 and iNOS peptide interactions. Titration curves were fitted using the “One Set of Sites” model in MicroCal Origin.
as §1

[3] = molecular target: T1, Y120A-SSB-2ΔSB (murine SSB-2 residues …); experiment: ITC, 25 C, wild-type peptide with Y120A-SSB-2ΔSB
Method: as §3, §1

[4] = molecular target: T2, SSB-2ΔSB (recombinant murine SSB-2 SPRY …); experiment: ITC
Method: as §1, §2

[5] = molecular target: T3, full-length iNOS protein (endogenous, from LPS/IFNγ-treated mouse bone marrow-derived macrophages) (mouse, UniProt P29477 1-1144); experiment: anti-Flag co-immunoprecipitation from mixed 293T and BMDM lysates, anti-iNOS Western blot
T3 construct: Not purified: present in macrophage lysates; Detected by Western blot with anti-iNOS antibody; also called NOS2; inducible nitric oxide synthase
T3 sequence: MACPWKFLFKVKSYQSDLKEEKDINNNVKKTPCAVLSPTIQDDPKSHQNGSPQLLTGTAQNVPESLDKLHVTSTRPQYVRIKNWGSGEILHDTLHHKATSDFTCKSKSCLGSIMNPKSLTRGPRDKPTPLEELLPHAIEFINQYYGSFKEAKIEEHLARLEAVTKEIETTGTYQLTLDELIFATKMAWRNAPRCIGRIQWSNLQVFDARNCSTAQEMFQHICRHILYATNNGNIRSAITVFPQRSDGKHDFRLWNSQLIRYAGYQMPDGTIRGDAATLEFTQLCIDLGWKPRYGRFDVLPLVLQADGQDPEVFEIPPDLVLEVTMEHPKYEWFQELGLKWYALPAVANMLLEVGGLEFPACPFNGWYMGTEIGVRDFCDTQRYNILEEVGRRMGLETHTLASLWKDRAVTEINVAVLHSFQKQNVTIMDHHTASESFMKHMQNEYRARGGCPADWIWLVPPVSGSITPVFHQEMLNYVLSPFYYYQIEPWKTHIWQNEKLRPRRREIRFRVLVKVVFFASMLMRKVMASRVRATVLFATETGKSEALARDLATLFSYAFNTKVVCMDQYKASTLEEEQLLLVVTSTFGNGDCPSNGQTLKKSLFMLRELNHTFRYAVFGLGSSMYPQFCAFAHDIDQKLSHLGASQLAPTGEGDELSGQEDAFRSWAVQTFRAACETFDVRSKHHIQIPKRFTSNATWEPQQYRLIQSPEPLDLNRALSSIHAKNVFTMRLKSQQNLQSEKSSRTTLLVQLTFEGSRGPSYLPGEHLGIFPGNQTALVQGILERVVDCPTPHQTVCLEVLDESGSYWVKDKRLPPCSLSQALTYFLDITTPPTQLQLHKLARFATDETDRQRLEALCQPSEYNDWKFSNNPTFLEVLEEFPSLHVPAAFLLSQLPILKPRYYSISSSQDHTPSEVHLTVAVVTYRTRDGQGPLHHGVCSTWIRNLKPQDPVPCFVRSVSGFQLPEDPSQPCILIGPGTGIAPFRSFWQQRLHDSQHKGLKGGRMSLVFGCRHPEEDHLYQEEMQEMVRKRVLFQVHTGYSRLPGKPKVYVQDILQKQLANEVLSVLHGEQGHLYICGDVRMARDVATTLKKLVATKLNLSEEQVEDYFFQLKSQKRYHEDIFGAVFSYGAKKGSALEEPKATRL
Text: FIG. 6. Interaction between iNOS and SSB-1, -2, and -4 and SSB-2 residues affecting 10 iNOS binding. (A) iNOS interacts preferentially with SSB-2 and SSB-4. 293T cells were transiently transfected with vector alone or cDNA encoding either Flag-tagged SSB-1, SSB-2, SSB-3 or SSB-4. Cells were lysed, and mixed with BMDM lysates from cells induced to express iNOS. Flag-tagged proteins were immunoprecipitated using anti-Flag antibodies (M2-beads) and separated by SDSPAGE. Co-immunoprecipitation of iNOS was detected by Western blot with anti-iNOS antibodies (upper panel). Membranes were stripped and reprobed with rat anti-Flag antibodies (middle panel). Comparative expression of Flag-tagged proteins in 293T lysates is shown by Western blot (lower panel). (B) SSB-2 residues affecting iNOS binding. Residues in the SSB-2 SPRY domain were mutated to Ala or Phe (for Y120) based on SSB-2 structure and sequence conservation. […] Coimmunoprecipitation of iNOS was detected by Western blot with anti-iNOS antibodies.
To investigate whether other SSB family members were able to interact with iNOS, 293T cells were transiently transfected with cDNA expressing SSB-1, SSB-2, SSB-3 or SSB-4 with an N-terminal Flag-epitopetag. […] SSB proteins were immunoprecipitated using anti-Flag antibodies coupled to Sepharose and association of iNOS analysed by Western blot. […]

[6] = molecular target: T3, full-length iNOS protein (endogenous, …); experiment: anti-Flag co-immunoprecipitation, anti-iNOS Western blot
Text: FIG. 6. Interaction between iNOS and SSB-1, -2, and -4 and SSB-2 residues affecting 10 iNOS binding. (A) iNOS interacts preferentially with SSB-2 and SSB-4. 293T cells were transiently transfected with vector alone or cDNA encoding either Flag-tagged SSB-1, SSB-2, SSB-3 or SSB-4. Cells were lysed, and mixed with BMDM lysates from cells induced to express iNOS. Flag-tagged proteins were immunoprecipitated using anti-Flag antibodies (M2-beads) and separated by SDSPAGE. Co-immunoprecipitation of iNOS was detected by Western blot with anti-iNOS antibodies (upper panel). Membranes were stripped and reprobed with rat anti-Flag antibodies (middle panel). Comparative expression of Flag-tagged proteins in 293T lysates is shown by Western blot (lower panel). (B) SSB-2 residues affecting iNOS binding. Residues in the SSB-2 SPRY domain were mutated to Ala or Phe (for Y120) based on SSB-2 structure and sequence conservation. 293T cells 20 were transiently transfected with cDNA encoding Flag-tagged wild-type or mutant SSB-2. Cells were lysed, and mixed with BMDM lysates from cells induced to express iNOS. Flag-tagged proteins were immunoprecipitated using anti-Flag antibodies and separated by SDS-PAGE. Coimmunoprecipitation of iNOS was detected by Western blot with anti-iNOS antibodies.

[7] = molecular target: T3, full-length iNOS protein (endogenous, …); experiment: anti-SSB-2 immunoprecipitation from BMDM, anti-iNOS Western blot (FIG. 5B)
Method: FIG. 5. SSB-2 interacts with endogenous full-length iNOS protein. (A) SSB-2 interacts with full-length iNOS and this requires tyrosine 120 in the SPRY domain peptide-binding surface. Bone marrow-derived macrophages (BMDM) from C57BL/6 mice were incubated with 20 ng/ml IFNγ and 1 μg/ml LPS for 16 h, lysed and incubated with NHS-sepharose beads coupled with recombinant SSB-2 or SSB-2-Y120A proteins, or with uncoupled NHS-sepharose beads (CON), for 3 h at 4° C. Associated proteins were then separated by SDS-PAGE and transferred to PVDF membrane. iNOS was detected by Western blot with specific anti-iNOS antibodies (upper panel). Equivalent amounts of SSB-2 and SSB-2-Y120A were confirmed by reprobe with anti-SSB-2 antibodies (lower panel). (B) Interaction between endogenous iNOS and SSB-2 proteins. Bone marrow-derived macrophages from SSB-2-deficient mice (Ssb-2^{-/-}) or wild-type littermate controls (Ssb-2^{+/+}) were incubated with (+) or without (−) 20 ng/ml IFNγ and 20 ng/ml LPS for 16 h, lysed and endogenous SSB-2 proteins immunoprecipitated using rabbit anti-SSB-2 antibody coupled to NHS-Sepharose. Immunoprecipitates were separated by SDS-PAGE and associated iNOS protein detected by Western blot with specific antibodies (upper panel). […]

B1: iNOS N-terminal peptide I, wild-type, Ac-KEEKDINNNVKKT-NH2 (peptide)
peptide: Ac-KEEKDINNNVKKT-NH2
notes: Synthetic peptide (GL Biochem); also called wild-type iNOS peptide; iNOS peptide
fold reduced affinity against SSB-2ΔSB [1]: ~5000 fold
Kd [2]: 13.3 nM
Kd [3]: 76300 nM

Ac-KEEKDINNNAKKT-NH2 [iNOS N-terminal peptide XII, Ac-KEEKDINNNAKKT-NH2]
fold lower binding affinity than the wild-type peptide [4]: 2 to 4 fold
Kd [2]: 56.8 nM

Ac-KEEKDINNNVKAT-NH2 [iNOS N-terminal peptide XIII, Ac-KEEKDINNNVKAT-NH2]
fold lower binding affinity than the wild-type peptide [4]: 2 fold
Kd [2]: 29.8 nM

Ac-KEEADINNNAKAT-NH2 [iNOS N-terminal peptide XV, Ac-KEEADINNNAKAT-NH2]
fold decrease of binding affinity against the wild-type peptide [4]: ~24 fold
Kd [2]: 311 nM

B2: Flag-tagged SSB-3 (murine, expressed in 293T cells) (other, mouse)
chain: DYKDDDDKMARRTRSSRAWHFVLSAARRDTDARAVALAGSSNWGYDSDGQHSDSDSDPEYSSLPPSIPSAVPVTGESFCDCEGQNEATFCNSLHTAHRGKDCRCGEEDEDFDWVWDDLNKSSATLLSCDNRKVSFHMEYSCGTAAIRGTKELGDGQHFWEIKMTSPVYGTDMMVGIGTSDVDLDKYHHTFCSLLGRDEDSWGLSYTGLLHHKGDKTSFSSRFGQGSIIGVHLDTWHGTLTFFKNRKCIGVAATRLQNRRFYPMVCSTAAKSSMKVIRSCASSTSLQYLCCYRLRQLRPNSGDTLEGLPLPPGLKQVLHNKLGWVLSMNCNHWKSPVPPPGTATPGAESLETRPCQRKRCRRS
notes: also called SPSB3
binding result [5]: no binding

B3: Flag-tagged SSB-2 mutant Y120 to phenylalanine (other)
chain: DYKDDDDKMGQTALARGSSSTPTSQALYSDFSPPEGLEELLSAPPPDLVAQRHHGWNPKDCSENIDVKEGGLCFERRPVAQSTDGVRGKRGYSRGLHAWEISWPLEQRGTHAVVGVATALAPLQADHFAALLGSNSESWGWDIGRGKLYHQSKGLEAPQYPAGPQGEQLVVPERLLVVLDMEEGTLGYSIGGTYLGPAFRGLKGRTLYPSVSAVWGQCQVRIRYMGERRVEEPQSLLHLSRLCVRHALGDTRLGQISTLPLPPAMKRYLLYK
binding result [6]: no binding

B4: endogenous SSB-2 protein (mouse bone marrow-derived macrophages) (other)
chain: MGQTALARGSSSTPTSQALYSDFSPPEGLEELLSAPPPDLVAQRHHGWNPKDCSENIDVKEGGLCFERRPVAQSTDGVRGKRGYSRGLHAWEISWPLEQRGTHAVVGVATALAPLQADHYAALLGSNSESWGWDIGRGKLYHQSKGLEAPQYPAGPQGEQLVVPERLLVVLDMEEGTLGYSIGGTYLGPAFRGLKGRTLYPSVSAVWGQCQVRIRYMGERRVEEPQSLLHLSRLCVRHALGDTRLGQISTLPLPPAMKRYLLYK
notes: Immunoprecipitated with rabbit anti-SSB-2 antibody coupled to NHS-Sepharose; also called SPSB2
binding result [7]: binds
